The values that follow come from patent US20190085040A1.

The target in series [1] is transient receptor potential vanilloid 1 (TRPV1), rat, in primary neonatal cardiomyocytes (rat) (UniProt O35433). Put plainly: cell-based or functional assay.
Chain of transient receptor potential vanilloid 1 (TRPV1), rat, in primary neonatal cardiomyocytes (rat) (O35433 whole entry): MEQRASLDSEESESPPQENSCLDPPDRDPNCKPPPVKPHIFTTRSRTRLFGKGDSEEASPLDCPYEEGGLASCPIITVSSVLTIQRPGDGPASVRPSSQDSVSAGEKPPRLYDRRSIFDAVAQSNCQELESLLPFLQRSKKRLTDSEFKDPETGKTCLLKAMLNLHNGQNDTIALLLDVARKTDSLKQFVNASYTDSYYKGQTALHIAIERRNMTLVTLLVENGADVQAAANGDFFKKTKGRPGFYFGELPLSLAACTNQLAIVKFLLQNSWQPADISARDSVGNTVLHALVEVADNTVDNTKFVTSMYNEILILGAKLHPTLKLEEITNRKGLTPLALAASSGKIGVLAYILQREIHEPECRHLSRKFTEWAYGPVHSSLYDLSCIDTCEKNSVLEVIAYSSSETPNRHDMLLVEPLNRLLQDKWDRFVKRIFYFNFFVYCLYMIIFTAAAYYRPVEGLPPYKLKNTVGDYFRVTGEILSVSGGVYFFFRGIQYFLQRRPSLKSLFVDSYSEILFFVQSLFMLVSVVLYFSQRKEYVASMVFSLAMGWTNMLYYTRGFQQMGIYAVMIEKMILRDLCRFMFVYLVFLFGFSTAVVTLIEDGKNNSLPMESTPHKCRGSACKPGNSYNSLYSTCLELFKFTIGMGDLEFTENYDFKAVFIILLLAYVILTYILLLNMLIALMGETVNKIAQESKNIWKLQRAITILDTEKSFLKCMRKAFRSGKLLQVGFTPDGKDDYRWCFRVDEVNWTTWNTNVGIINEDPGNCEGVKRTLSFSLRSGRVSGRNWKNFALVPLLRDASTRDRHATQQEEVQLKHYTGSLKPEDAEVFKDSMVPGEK

Turning to recombinant calcineurin, the “calcineurin activity by free phosphate release from a calcineurin substrate (colorimetric, peptide at 10 µM, against TAT at 10 µM)” value in the series with V1-cal was “In comparison to TAT, V1-cal reduced the ability for calcineurin to dephosphorylate a calcineurin substrate as measured by free phosphate release in vitro”. As to “calcineurin, endogenous in rat primary neonatal cardiomyocytes (enzyme)”, in series [1], the fold decrease in negative change in mitochondrial membrane potential caused by capsaicin (1 µM) in primary neonatal cardiomyocytes, with V1-cal (1 µM) given 10 minutes before came to 10 fold.
